Measured values from article PMC12416549 (2024).

T1: TNFR1 (Homo sapiens, UniProt P19438)
T1 chain: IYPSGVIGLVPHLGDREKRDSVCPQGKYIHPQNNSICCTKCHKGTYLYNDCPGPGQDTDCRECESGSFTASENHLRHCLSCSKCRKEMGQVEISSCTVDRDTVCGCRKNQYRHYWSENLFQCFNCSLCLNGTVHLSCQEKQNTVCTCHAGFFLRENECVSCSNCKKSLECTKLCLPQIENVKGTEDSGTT


Target: T1, TNFR1
Assay: yeast display SC50

apparent Kd (screen) [nM]	Binder
0.593	P79S (designed binder) MTLQELLREEALRRAEAEAFRYALELLAEKFPEQKEYLLDLAEEIESQIRSLSGVDVEDVRKFLDKEWAWVKELLAEHSAELAEVEAARAARLAELRAEVEAKVAA
0.869	T2Y (designed binder) MYLQELLREEALRRAEAEAFRYALELLAEKFPEQKEYLLDLAEEIESQIRSLSGVDVEDVRKFLDKEWAWVKELLAEHPAELAEVEAARAARLAELRAEVEAKVAA
0.539	E33P (designed binder) MTLQELLREEALRRAEAEAFRYALELLAEKFPPQKEYLLDLAEEIESQIRSLSGVDVEDVRKFLDKEWAWVKELLAEHPAELAEVEAARAARLAELRAEVEAKVAA
1.54	K35V (designed binder) MTLQELLREEALRRAEAEAFRYALELLAEKFPEQVEYLLDLAEEIESQIRSLSGVDVEDVRKFLDKEWAWVKELLAEHPAELAEVEAARAARLAELRAEVEAKVAA
1.05	L75S (designed binder) MTLQELLREEALRRAEAEAFRYALELLAEKFPEQKEYLLDLAEEIESQIRSLSGVDVEDVRKFLDKEWAWVKELSAEHPAELAEVEAARAARLAELRAEVEAKVAA
0.49	K66A (designed binder) MTLQELLREEALRRAEAEAFRYALELLAEKFPEQKEYLLDLAEEIESQIRSLSGVDVEDVRKFLDAEWAWVKELLAEHPAELAEVEAARAARLAELRAEVEAKVAA
0.869	R61A (designed binder) MTLQELLREEALRRAEAEAFRYALELLAEKFPEQKEYLLDLAEEIESQIRSLSGVDVEDVAKFLDKEWAWVKELLAEHPAELAEVEAARAARLAELRAEVEAKVAA
4.83	E67D (designed binder) MTLQELLREEALRRAEAEAFRYALELLAEKFPEQKEYLLDLAEEIESQIRSLSGVDVEDVRKFLDKDWAWVKELLAEHPAELAEVEAARAARLAELRAEVEAKVAA
0.593	A69K (designed binder) MTLQELLREEALRRAEAEAFRYALELLAEKFPEQKEYLLDLAEEIESQIRSLSGVDVEDVRKFLDKEWKWVKELLAEHPAELAEVEAARAARLAELRAEVEAKVAA
0.49	V60F (designed binder) MTLQELLREEALRRAEAEAFRYALELLAEKFPEQKEYLLDLAEEIESQIRSLSGVDVEDFRKFLDKEWAWVKELLAEHPAELAEVEAARAARLAELRAEVEAKVAA
1.4	A88T (designed binder) MTLQELLREEALRRAEAEAFRYALELLAEKFPEQKEYLLDLAEEIESQIRSLSGVDVEDVRKFLDKEWAWVKELLAEHPAELAEVEATRAARLAELRAEVEAKVAA
0.539	L38M (designed binder) MTLQELLREEALRRAEAEAFRYALELLAEKFPEQKEYMLDLAEEIESQIRSLSGVDVEDVRKFLDKEWAWVKELLAEHPAELAEVEAARAARLAELRAEVEAKVAA
0.539	E25F (designed binder) MTLQELLREEALRRAEAEAFRYALFLLAEKFPEQKEYLLDLAEEIESQIRSLSGVDVEDVRKFLDKEWAWVKELLAEHPAELAEVEAARAARLAELRAEVEAKVAA
0.593	R92T (designed binder) MTLQELLREEALRRAEAEAFRYALELLAEKFPEQKEYLLDLAEEIESQIRSLSGVDVEDVRKFLDKEWAWVKELLAEHPAELAEVEAARAATLAELRAEVEAKVAA
0.593	R8G (designed binder) MTLQELLGEEALRRAEAEAFRYALELLAEKFPEQKEYLLDLAEEIESQIRSLSGVDVEDVRKFLDKEWAWVKELLAEHPAELAEVEAARAARLAELRAEVEAKVAA
0.49	V100L (designed binder) MTLQELLREEALRRAEAEAFRYALELLAEKFPEQKEYLLDLAEEIESQIRSLSGVDVEDVRKFLDKEWAWVKELLAEHPAELAEVEAARAARLAELRAELEAKVAA
0.653	A69I (designed binder) MTLQELLREEALRRAEAEAFRYALELLAEKFPEQKEYLLDLAEEIESQIRSLSGVDVEDVRKFLDKEWIWVKELLAEHPAELAEVEAARAARLAELRAEVEAKVAA
2.73	R61E (designed binder) MTLQELLREEALRRAEAEAFRYALELLAEKFPEQKEYLLDLAEEIESQIRSLSGVDVEDVEKFLDKEWAWVKELLAEHPAELAEVEAARAARLAELRAEVEAKVAA

apparent Kd (screen) [nM]	Binder
0.368	R13I (designed binder) MTLQELLREEALIRAEAEAFRYALELLAEKFPEQKEYLLDLAEEIESQIRSLSGVDVEDVRKFLDKEWAWVKELLAEHPAELAEVEAARAARLAELRAEVEAKVAA
0.869	E43L (designed binder) MTLQELLREEALRRAEAEAFRYALELLAEKFPEQKEYLLDLALEIESQIRSLSGVDVEDVRKFLDKEWAWVKELLAEHPAELAEVEAARAARLAELRAEVEAKVAA
0.446	E29H (designed binder) MTLQELLREEALRRAEAEAFRYALELLAHKFPEQKEYLLDLAEEIESQIRSLSGVDVEDVRKFLDKEWAWVKELLAEHPAELAEVEAARAARLAELRAEVEAKVAA
0.446	P79M (designed binder) MTLQELLREEALRRAEAEAFRYALELLAEKFPEQKEYLLDLAEEIESQIRSLSGVDVEDVRKFLDKEWAWVKELLAEHMAELAEVEAARAARLAELRAEVEAKVAA
0.539	R14I (designed binder) MTLQELLREEALRIAEAEAFRYALELLAEKFPEQKEYLLDLAEEIESQIRSLSGVDVEDVRKFLDKEWAWVKELLAEHPAELAEVEAARAARLAELRAEVEAKVAA
0.446	H78K (designed binder) MTLQELLREEALRRAEAEAFRYALELLAEKFPEQKEYLLDLAEEIESQIRSLSGVDVEDVRKFLDKEWAWVKELLAEKPAELAEVEAARAARLAELRAEVEAKVAA
0.539	E18Q (designed binder) MTLQELLREEALRRAEAQAFRYALELLAEKFPEQKEYLLDLAEEIESQIRSLSGVDVEDVRKFLDKEWAWVKELLAEHPAELAEVEAARAARLAELRAEVEAKVAA
1.05	E16F (designed binder) MTLQELLREEALRRAFAEAFRYALELLAEKFPEQKEYLLDLAEEIESQIRSLSGVDVEDVRKFLDKEWAWVKELLAEHPAELAEVEAARAARLAELRAEVEAKVAA
0.539	L52Y (designed binder) MTLQELLREEALRRAEAEAFRYALELLAEKFPEQKEYLLDLAEEIESQIRSYSGVDVEDVRKFLDKEWAWVKELLAEHPAELAEVEAARAARLAELRAEVEAKVAA
0.49	K103G (designed binder) MTLQELLREEALRRAEAEAFRYALELLAEKFPEQKEYLLDLAEEIESQIRSLSGVDVEDVRKFLDKEWAWVKELLAEHPAELAEVEAARAARLAELRAEVEAGVAA
0.49	Q4F (designed binder) MTLFELLREEALRRAEAEAFRYALELLAEKFPEQKEYLLDLAEEIESQIRSLSGVDVEDVRKFLDKEWAWVKELLAEHPAELAEVEAARAARLAELRAEVEAKVAA
0.446	E99R (designed binder) MTLQELLREEALRRAEAEAFRYALELLAEKFPEQKEYLLDLAEEIESQIRSLSGVDVEDVRKFLDKEWAWVKELLAEHPAELAEVEAARAARLAELRARVEAKVAA
1.05	E25S (designed binder) MTLQELLREEALRRAEAEAFRYALSLLAEKFPEQKEYLLDLAEEIESQIRSLSGVDVEDVRKFLDKEWAWVKELLAEHPAELAEVEAARAARLAELRAEVEAKVAA
0.718	E58T (designed binder) MTLQELLREEALRRAEAEAFRYALELLAEKFPEQKEYLLDLAEEIESQIRSLSGVDVTDVRKFLDKEWAWVKELLAEHPAELAEVEAARAARLAELRAEVEAKVAA
0.79	V85F (designed binder) MTLQELLREEALRRAEAEAFRYALELLAEKFPEQKEYLLDLAEEIESQIRSLSGVDVEDVRKFLDKEWAWVKELLAEHPAELAEFEAARAARLAELRAEVEAKVAA
9.41	V55D (designed binder) MTLQELLREEALRRAEAEAFRYALELLAEKFPEQKEYLLDLAEEIESQIRSLSGDDVEDVRKFLDKEWAWVKELLAEHPAELAEVEAARAARLAELRAEVEAKVAA
0.869	R50L (designed binder) MTLQELLREEALRRAEAEAFRYALELLAEKFPEQKEYLLDLAEEIESQILSLSGVDVEDVRKFLDKEWAWVKELLAEHPAELAEVEAARAARLAELRAEVEAKVAA
